Results on one molecule are retold here after US20140223606, “COMPOSITIONS AND METHODS COMPRISING SEQUENCES HAVING MEGANUCLEASE ACTIVITY” (PIONEER HI BRED INTERNATIONAL INC, published 2014).

Common to all, as to test: cell_activity; maize
Settings in all cases: tags: SV40 NLS

The target of data set [1] is T1, MHP77.3(L9-12) (artificial).
T1 chain: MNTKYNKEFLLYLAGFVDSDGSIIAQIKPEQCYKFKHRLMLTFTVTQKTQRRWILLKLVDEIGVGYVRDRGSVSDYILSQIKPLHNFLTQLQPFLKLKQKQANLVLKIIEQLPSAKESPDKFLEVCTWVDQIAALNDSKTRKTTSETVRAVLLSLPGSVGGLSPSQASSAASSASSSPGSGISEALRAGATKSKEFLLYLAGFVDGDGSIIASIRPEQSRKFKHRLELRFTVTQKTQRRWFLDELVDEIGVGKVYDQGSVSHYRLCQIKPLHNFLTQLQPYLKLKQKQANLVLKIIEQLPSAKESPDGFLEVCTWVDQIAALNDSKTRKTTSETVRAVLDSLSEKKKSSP

The target of data set [2] is T2, MHP77.3(L9-11) (artificial).
T2 chain: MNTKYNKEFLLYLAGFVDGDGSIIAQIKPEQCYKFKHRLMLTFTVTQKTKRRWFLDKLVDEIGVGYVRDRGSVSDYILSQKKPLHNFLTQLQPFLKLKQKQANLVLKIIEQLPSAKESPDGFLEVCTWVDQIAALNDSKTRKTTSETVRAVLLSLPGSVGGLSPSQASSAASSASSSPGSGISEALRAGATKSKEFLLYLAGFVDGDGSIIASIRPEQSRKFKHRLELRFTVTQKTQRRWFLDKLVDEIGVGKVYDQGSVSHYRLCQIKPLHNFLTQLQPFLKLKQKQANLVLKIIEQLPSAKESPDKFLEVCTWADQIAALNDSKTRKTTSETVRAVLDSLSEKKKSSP

For data set [3], the target named is T3, MHP77.3(15) (artificial).
T3 chain: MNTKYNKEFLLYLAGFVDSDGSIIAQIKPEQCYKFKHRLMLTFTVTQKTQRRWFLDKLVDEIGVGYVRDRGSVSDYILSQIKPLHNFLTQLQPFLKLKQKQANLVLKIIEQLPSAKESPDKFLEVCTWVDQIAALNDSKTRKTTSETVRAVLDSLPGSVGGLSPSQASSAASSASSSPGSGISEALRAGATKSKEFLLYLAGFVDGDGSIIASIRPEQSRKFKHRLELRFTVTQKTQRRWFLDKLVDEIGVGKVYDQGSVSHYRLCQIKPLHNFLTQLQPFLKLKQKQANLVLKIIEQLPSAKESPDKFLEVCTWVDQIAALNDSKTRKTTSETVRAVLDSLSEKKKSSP

Data set [4] concerns the target T4, MHP77.3(L9-02) (artificial).
T4 chain: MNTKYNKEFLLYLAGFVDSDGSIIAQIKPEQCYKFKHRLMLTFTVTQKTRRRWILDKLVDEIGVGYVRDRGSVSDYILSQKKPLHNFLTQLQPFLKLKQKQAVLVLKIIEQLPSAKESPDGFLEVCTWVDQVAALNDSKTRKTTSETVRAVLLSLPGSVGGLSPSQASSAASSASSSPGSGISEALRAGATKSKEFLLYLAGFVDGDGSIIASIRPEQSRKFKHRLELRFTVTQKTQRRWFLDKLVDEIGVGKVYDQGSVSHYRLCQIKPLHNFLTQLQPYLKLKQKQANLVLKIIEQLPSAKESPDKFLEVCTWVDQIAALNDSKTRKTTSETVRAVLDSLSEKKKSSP

Data set [5] deals with T5, MHP77.3 (artificial).
T5 chain: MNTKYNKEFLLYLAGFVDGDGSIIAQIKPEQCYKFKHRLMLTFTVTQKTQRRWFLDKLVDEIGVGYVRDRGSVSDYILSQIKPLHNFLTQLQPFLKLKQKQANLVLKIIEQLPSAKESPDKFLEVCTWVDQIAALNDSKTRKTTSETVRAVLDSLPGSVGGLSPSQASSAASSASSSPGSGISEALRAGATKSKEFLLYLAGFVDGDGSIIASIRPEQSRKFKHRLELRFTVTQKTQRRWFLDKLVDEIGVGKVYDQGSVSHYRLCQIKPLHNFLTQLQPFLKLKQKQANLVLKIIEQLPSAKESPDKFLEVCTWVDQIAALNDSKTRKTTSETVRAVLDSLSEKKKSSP

B1: MHP77 recognition site (dsDNA)
DNA 1: GGGCGGTATGTATGTCATACTA
DNA 2: TAGTATGACATACATACCGCCC
Take B1: the activity was 19 % target site mutation rate in data set [1]; 35 % target site mutation rate in data set [2]; 22 % target site mutation rate in data set [3]; 5 % target site mutation rate in data set [4]; 11 % target site mutation rate in data set [5].
